The test addresses bovine trypsin (bovine, UniProt P00760 24-246). The test can be described thus: cell-based or functional assay.

For 1 molecule, Trypsin inhibition activity results are on record in patent publication US20240206509A1 (CLARA FOODS, published 2024).

bovine trypsin, sequence (P00760 24-246): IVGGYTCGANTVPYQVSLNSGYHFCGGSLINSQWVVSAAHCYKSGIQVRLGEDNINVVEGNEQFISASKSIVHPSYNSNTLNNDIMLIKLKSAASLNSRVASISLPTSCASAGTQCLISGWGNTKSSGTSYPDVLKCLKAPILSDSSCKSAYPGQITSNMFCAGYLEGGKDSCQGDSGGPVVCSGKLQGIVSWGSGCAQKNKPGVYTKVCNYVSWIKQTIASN

B1: native chicken ovomucoid (nOVD) (other)
chain: AEVDCSRFPNATDKEGKDVLVCNKDLRPICGTDGVTYTNDCLLCAYSIEFGTNISKEHDGECKETVPMNCSSYANTTSEDGKVMVLCNRAFNPVCGTDGVTYDNECLLCAHKVEQGASVDKRHDGGCRKELAAVSVDCSEYPKPDCTAEDRPLCGSDNKTYGNKCNFCNAVVESNGTLTLSHFGKC
modifications: complex branched N-linked glycosylation (that includes mannose), as in chicken egg white
The molecule B1 came in with a Trypsin inhibition activity of 13700 TIU/g.
